Assay: yeast display, Sf9 membrane polyspecificity reagent, FACS + sequencing; frameworks hold sequencing errors
Method in brief: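 A nanobody's polyreactivity label depends on the gate it was sorted from. Yeast display cells were stained with 10% biotinylated, detergent-solubilized Sf9 membrane reagent for 1 hour at 4 °C, enriched on streptavidin microbeads and sorted by FACS. The low and high (top ~1%) gates were set on anti-HA fluorescence for expression and streptavidin fluorescence for reagent binding.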
In the case of “QVQLVESGGGLVQAGGSLRLSCAASGRIFQPNAMGWYRQAPGKERELVAAISSSGGRTYYADSVKGRFTISRDNAKNTVYLQMNSLKPEDSAVYYCNAGGYRYRSYDYWGQGTQVTVSS”, the “polyreactivity (PSR sort gate)” value is reported as “high polyreactivity”.
With “QVQLVESGGGLVQAGGSLRLSCAASGRIFQPNAMGWYRQAPGKERELVAAISSSGGRTYYADSVKGRFTISRDNAKNTVYLQMYSLKPEDSAVYYCNAGGYRYRSYDYWGQGTQVTVSS” the “polyreactivity (PSR sort gate)” value was “high polyreactivity”.
For “QVQLVESGGGLVQAGGSLRLSCAASGRIFQPNVMGWYRQAPGKERELVAAIRSGSSTYYADSVKGRFTISRDNAKNTVYLQMNSLKPEDTAVYYCATRRAGRGYDYWGQGTQVTVSS”, the “polyreactivity (PSR sort gate)” value was “high polyreactivity”.
In the case of “QVQLVESGGGLVQAGGSLRLSCAASGRIFQRNAMGWYRQAPGKERELVAAITSTGVRTYYADSVKGRFTISRDNAKNTVYLQMNSLKPEDTAVYYCAVRGERRYIYAYWGQGTQVTVSS”, the “polyreactivity (PSR sort gate)” value is reported as “high polyreactivity”.
With “QVQLVESGGGLVQAGGSLRLSCAASGRIFQRNAMGWYRQAPGKVWELVAAITSTGVRTYYADSVKGRFTISRDNAKNTVYLQMNSLKPEDSAVYYCNAVGRRVRTWHDYDYWGQGTQVTVSS” the “polyreactivity (PSR sort gate)” value was “high polyreactivity”.
For “QVQLVESGGGLVQAGGSLRLSCAASGRIFQRYAMGWYRQAPGKERELVAAISKNGGRTYYADSVKGRFTISRDNAKNTVYLQMNSLKPEDTAVYYCNKGTAGYEYAAFDYWGQGTQVTVSS”, the “polyreactivity (PSR sort gate)” value was “low polyreactivity”.
For “QVQLVESGGGLVQAGGSLRLSCAASGRIFQRYTMGWYRQAPGKEREFVAAITYSGGSTHYADSVKGRFTISRDNAKNTVYLQMNSLKPEDTAVYYCNADRYYGRGYGYWGQGTQVTVSS”, the “polyreactivity (PSR sort gate)” value was “low polyreactivity”.
For “QVQLVESGGGLVQAGGSLRLSCAASGRIFQVNAMGWYRQAPGKERELVAAITYSGGTTYYADSVKGRFTISRDNAKNTVYLQMNSLKPEDTAVYYCNAEYRWPYWGQWYFKGYDYWGQGTQVTVSS”, the “polyreactivity (PSR sort gate)” value was “low polyreactivity”.
For “QVQLVESGGGLVQAGGSLRLSCAASGRIFQWYTMGWYRQAPGKERELVATITDGGSTYYADSVKGRFTISRDNAKNTVYLQMNSLKPEDTAVYYCAARKIGSRRLLYPYYIFGYWGQGTQVTVSS”, the “polyreactivity (PSR sort gate)” value was “high polyreactivity”.
With “QVQLVESGGGLVQAGGSLRLSCAASGRIFQYYAMGWYRQAPGKEREFVAAISDSGSNTYYADSVKGRFTISCDKAKNTVYLQMNSLKPEDTAVSYCAALYATRALFYFWGQGTQVTVSS” the “polyreactivity (PSR sort gate)” value was “low polyreactivity”.
With “QVQLVESGGGLVQAGGSLRLSCAASGRIFQYYAMGWYRQAPGKERELVAAISSSGGSTYYADSVKGRFTISRDNAKNTVYLQMNSLKPEDTAVYYCNADRNARQNRRDYWGQGTQVTVSS” the “polyreactivity (PSR sort gate)” value was “high polyreactivity”.
For “QVQLVESGGGLVQAGGSLRLSCAASGRIFQYYAMGWYRQEPGKERELVAAISGSGGRTYYADSVKGRFTISRDNAKNTVYLQMNSLKPEDTAVYYCNAVYRYYPFDYWGQGTQVTVSS”, the “polyreactivity (PSR sort gate)” value was “high polyreactivity”.
For “QVQLVESGGGLVQAGGSLRLSCAASGRIFRAYAMGWYRQAPGKERELVADIRGGGSTNYADSVKGRFTISRDNAKNTVYLQMNSLKPEDTAVYYCNAAAYRGMRQGPRYYYWGQGTQVTVSS”, the “polyreactivity (PSR sort gate)” value was “high polyreactivity”.
For “QVQLVESGGGLVQAGGSLRLSCAASGRIFRFYAMGWYRQAPGKERELVAAISSRGGSTYYADSVKGRFTISRDNAKNTVYLQMNSLKPEDTAVYYCNAYGSTSQMDYWGQGTQVTVSS”, the “polyreactivity (PSR sort gate)” value was “high polyreactivity”.
With “QVQLVESGGGLVQAGGSLRLSCAASGRIFRFYAMGWYRQAPGKERELVAVISTGGRTYYADSVKGRFTISRDNAKNTVYLQMNSLKPEDTAVYYCAAEYTTIGRYDGWHYNYWGQGTQVTVSS” the “polyreactivity (PSR sort gate)” value was “high polyreactivity”.
In the case of “QVQLVESGGGLVQAGGSLRLSCAASGRIFRFYTMAWYRQAPGKERELVAAITQRGGRTYYADSVKGRFTISRDNAKNTVYLLMNSLKPEDTAVFYCAATTTVAEYDYWGQGTQVTVSS”, the “polyreactivity (PSR sort gate)” value is reported as “high polyreactivity”.

Source: the nanobody polyreactivity screen of Harvey et al. (2022)
